# From patent publication EP1104310B1
# Tests used:
# Test in all cases: cell-based or functional assay
# [1] = biological target: CCR1 expressed on HOS-CD4 cells (UniProt P32246)
# [2] = biological target: CCR3 expressed on HOS-CD4 cells (UniProt P51677)
# [3] = biological target: CCR4 expressed on HOS-CD4 cells (UniProt P51679)
# [4] = biological target: CCR5 expressed on HOS-CD4 cells (UniProt P51681)
# [5] = biological target: CXCR4 expressed on HOS-CD4 cells (UniProt P61073)
# Chain of UniProt P61073 (P61073 whole entry): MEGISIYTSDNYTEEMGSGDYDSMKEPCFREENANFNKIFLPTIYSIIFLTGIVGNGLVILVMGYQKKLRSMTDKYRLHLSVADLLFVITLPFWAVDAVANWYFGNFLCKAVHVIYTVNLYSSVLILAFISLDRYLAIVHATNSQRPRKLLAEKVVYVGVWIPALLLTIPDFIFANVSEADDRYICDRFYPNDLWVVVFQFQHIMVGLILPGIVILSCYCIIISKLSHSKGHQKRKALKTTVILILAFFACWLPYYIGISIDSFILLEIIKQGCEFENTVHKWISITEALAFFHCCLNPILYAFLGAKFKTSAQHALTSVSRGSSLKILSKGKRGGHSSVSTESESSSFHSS
# Chain of UniProt P51681 (P51681 whole entry): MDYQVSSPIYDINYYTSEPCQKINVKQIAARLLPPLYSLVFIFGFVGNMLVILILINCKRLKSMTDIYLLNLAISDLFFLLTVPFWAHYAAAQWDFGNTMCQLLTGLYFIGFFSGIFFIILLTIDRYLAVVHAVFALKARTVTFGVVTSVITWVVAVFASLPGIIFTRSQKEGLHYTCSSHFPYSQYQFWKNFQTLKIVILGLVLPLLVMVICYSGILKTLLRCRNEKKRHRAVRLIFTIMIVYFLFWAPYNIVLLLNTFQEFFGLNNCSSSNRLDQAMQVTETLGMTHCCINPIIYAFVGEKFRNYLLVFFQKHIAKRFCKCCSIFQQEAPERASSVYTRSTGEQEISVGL
# Chain of UniProt P51677 (P51677 whole entry): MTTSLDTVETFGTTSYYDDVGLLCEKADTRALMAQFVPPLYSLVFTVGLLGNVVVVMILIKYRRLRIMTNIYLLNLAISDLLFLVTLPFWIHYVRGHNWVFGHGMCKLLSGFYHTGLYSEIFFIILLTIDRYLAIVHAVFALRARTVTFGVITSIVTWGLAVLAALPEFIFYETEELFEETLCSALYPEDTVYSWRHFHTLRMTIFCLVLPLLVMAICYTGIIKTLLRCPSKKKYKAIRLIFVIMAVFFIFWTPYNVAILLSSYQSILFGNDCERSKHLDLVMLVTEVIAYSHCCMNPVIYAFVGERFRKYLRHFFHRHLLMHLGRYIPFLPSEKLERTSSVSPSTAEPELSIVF
# Chain of UniProt P51679 (P51679 whole entry): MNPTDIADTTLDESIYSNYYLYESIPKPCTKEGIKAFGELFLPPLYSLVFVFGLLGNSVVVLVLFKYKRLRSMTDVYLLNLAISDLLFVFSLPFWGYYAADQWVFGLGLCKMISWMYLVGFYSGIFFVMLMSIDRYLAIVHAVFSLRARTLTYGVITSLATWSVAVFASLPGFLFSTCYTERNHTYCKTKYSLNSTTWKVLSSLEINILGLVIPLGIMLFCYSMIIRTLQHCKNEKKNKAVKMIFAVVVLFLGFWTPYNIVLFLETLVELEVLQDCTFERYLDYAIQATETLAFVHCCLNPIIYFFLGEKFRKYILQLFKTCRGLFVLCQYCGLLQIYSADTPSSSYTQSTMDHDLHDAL
# Chain of UniProt P32246 (P32246 whole entry): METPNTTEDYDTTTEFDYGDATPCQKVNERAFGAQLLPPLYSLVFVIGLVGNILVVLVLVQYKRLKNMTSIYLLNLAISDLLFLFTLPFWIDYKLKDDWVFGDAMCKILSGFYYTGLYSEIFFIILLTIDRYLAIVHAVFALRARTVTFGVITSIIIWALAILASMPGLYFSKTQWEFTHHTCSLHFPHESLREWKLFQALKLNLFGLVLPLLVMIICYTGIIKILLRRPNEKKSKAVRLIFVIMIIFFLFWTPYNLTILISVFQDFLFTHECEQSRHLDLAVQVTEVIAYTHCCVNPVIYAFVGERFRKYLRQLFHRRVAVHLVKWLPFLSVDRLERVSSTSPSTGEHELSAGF
Substance,Infectivity Titer in HOS-CD4 Cells Expressing CCR1 [1],Infectivity Titer in HOS-CD4 Cells Expressing CCR3 [2],Infectivity Titer in HOS-CD4 Cells Expressing CCR4 [3],Infectivity Titer in HOS-CD4 Cells Expressing CCR5 [4],Infectivity Titer in HOS-CD4 Cells Expressing CXCR4 [5]
"HIV-1 AD8 envelope, expressed on pseudovirus",< 4 titer (1:n),< 4 titer (1:n),< 4 titer (1:n),256 titer (1:n),< 4 titer (1:n)
"HIV-1 NL4-3 envelope, expressed on pseudovirus",< 4 titer (1:n),< 4 titer (1:n),< 4 titer (1:n),32 titer (1:n),> 256 titer (1:n)
